Experimental data reported in patent publication US20240101668A1 (WUGEN, published 2024).

Legend:
[1] = molecular target: T1, huCD33-R69 stably expressed on Jurkat cells (human, UniProt P20138 18-364); experiment: FACS on cells;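 further: fixed Jurkat lines probed with myc-tagged scFv periplasmic extracts, anti-myc PE flow cytometry, PE MFI fold binned − <2, + 2–10, ++ 10–30, +++ >30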
T1 construct: whole, on cells; >200,000 receptors per cell; also called CD33 WT; CD33^ARG69
Experimental: (§1) Jurkat cells were engineered to stably express either the huCD33-R69 or huCD33-G69 variant at >200,000 receptors per cell. Parental, huCD33-R69, and huCD33-G69 Jurkat cell lines were stained with differing levels of CellTrace Violet Cell Proliferation Kit (ThermoFisher, cat. #C34557) to barcode each cell line. Barcoded Jurkat cell lines were fixed with paraformaldehyde and incubated with myc-labeled scFv periplasmic extracts and a secondary anti-myc PE-conjugated monoclonal antibody. Appropriate positive and negative controls were used. Stained cells were analyzed by flow cytometry (CytoFLEX, Beckman Coulter, Inc.) and binding was assessed by change in PE mean fluorescence intensity (MFI) of the barcoded cell populations.
(§2) Data is disclosed below in Table 16c, reporting FACS fold change over parental as (−), indicating <2 fold; (+), indicating 2-10 fold; (++), indicating 10-30 fold; and (+++), indicating >30 fold.

[2] = molecular target: T2, huCD33-G69 stably expressed on Jurkat cells (human, UniProt P20138 18-364); experiment: FACS on cells;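 further: fixed Jurkat lines probed with myc-tagged scFv periplasmic extracts, anti-myc PE flow cytometry, PE MFI fold binned − <2, + 2–10, ++ 10–30, +++ >30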
T2 construct: whole, on cells; >200,000 receptors per cell; also called CD33 Mutant; CD33 R69G
T2 sequence (P20138 18-364 R69G): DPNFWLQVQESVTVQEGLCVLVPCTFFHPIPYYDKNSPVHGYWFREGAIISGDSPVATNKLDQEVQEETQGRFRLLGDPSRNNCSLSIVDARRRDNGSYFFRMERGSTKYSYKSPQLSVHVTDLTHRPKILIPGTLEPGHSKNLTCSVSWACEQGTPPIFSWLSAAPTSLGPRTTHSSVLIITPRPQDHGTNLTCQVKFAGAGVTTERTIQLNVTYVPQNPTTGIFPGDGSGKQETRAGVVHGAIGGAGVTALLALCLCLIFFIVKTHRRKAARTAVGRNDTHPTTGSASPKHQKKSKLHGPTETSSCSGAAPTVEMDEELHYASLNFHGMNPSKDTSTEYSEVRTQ
Experimental: as §1, §2

[3] = molecular target: T3, huCD33-G69-Fc recombinant protein (human, UniProt P20138 18-259); experiment: BLI;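 further: biolayer interferometry: scFvs captured from periplasmic extracts on anti-V5-loaded streptavidin biosensors, antigen association for 2 min, buffer dissociation for 5 min, 1:1 Langmuir fit giving off-rate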
T3 construct: extracellular domain; also called CD33 R69G
T3 sequence (P20138 18-259 R69G): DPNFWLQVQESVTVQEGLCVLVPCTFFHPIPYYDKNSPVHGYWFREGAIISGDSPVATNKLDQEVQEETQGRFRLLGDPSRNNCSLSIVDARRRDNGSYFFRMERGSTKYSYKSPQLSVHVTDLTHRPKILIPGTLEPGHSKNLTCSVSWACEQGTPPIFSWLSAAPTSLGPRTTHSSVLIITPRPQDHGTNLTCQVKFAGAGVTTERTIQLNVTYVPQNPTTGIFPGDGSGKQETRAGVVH
Experimental: Discovered scFvs were analyzed for binding to huCD33-R69-His or huCD33-G69-Fc recombinant proteins (for anti-CD33 scFvs; for CLL-1 scFvs, huCLL1-K244-Avi-Tev-His or huCLL1-Q244-Avi-Tev-His were used; for FLT3, huFLT3-T227-His or huFLT3-M227-Fc were used) using BLI on a ForteBio Octet HTX instrument. Streptavidin-coated biosensors were loaded with biotinylated anti-V5 tag monoclonal antibody for 5 min and were then quenched and blocked with 20 μM amine-PEG2-Biotin for 5 min. scFvs were captured on biosensors from scFv clone periplasmic extracts. huCD33 (or huCLL-1, or huFLT3) proteins were then associated with the captured scFvs for 2 minutes, followed by dissociation with buffer (1×HBST [10 mM HEPES pH 7.4, 150 mM NaCl, 0.05% Tween-20], 1 g/L BSA) for 5 minutes. […] Data was fitted with 1:1 Langmuir equation and off-rate values were reported.

T1 sequence (P20138 18-364): as the sequence (P20138 18-364 R69G) above, with G52R counted along it

FACS geometric mean fold change over Jurkat parental [1]	FACS geometric mean fold change over Jurkat parental [2]	binding result [3]	Binder
> 30 fold	> 30 fold	binds	Polypeptide No. 120 (scFv, V domains shown, scFv) VH: QVQLVQSGAEVKKPGASVKVSCKASGYTFTTYYMHWVRQAPGQGLEWMGWMNPNSGNTGYAQKFQGRVTMTRDTSTSTVYMELSSLRSEDTAVYYCARGHKVDSGYDPYGMDVWGQGTTVTVSS VL: DIQMTQSPSSLSASVGDRVTITCRASQSIGTYLHWYQQKPGKAPKLLIYAISTLQNGVPSRFSGSGSGTDFTLTISSLQPEDFATYYCQQSYSPPLTFGGGTKVEIKR
10 to 30 fold	10 to 30 fold	binds	Polypeptide No. 103 (scFv, V domains shown, scFv) VH: QVQLVQSGAEVKKPGASVKVSCKASGYTFTGYYMHWVRQAPGQGLEWMGWMNPDSGDTNYAQNFQGRVTMTRDTSTSTVYMELSSLRSEDTAVYYCATTRQPHYGMDVWGQGTTVTVSS VL: not shown
10 to 30 fold	> 30 fold	binds	Polypeptide No. 119 (scFv, V domains shown, scFv) VH: QVQLVQSGAEVKKPGASVKVSCKASGNTLTNDHIHWVRQAPGQGLEWMGWMNPNSGDTGYAQKFQGRVTMTRDTSTSTVYMELSSLRSEDTAVYYCARAGVDTAMVTYYYYGMDVWGQGTTVTVSS VL: not shown
10 to 30 fold	10 to 30 fold	binds	Polypeptide No. 115 (scFv, V domains shown, scFv) VH: QVQLVQSGAEVKKPGASVKVSCKASGYTFTGYYMHWVRQAPGQGLEWMGIISPSGGSPTYAQKFQGRVTMTRDTSTSTVYMELSSLRSEDTAVYYCAREGNGGMDVWGQGTTVTVSS VL: not shown
> 30 fold	10 to 30 fold	binds	Polypeptide No. 114 (scFv, V domains shown, scFv) VH: QVQLVQSGAEVKKPGASVKVSCKASGGTFSKYAISWVRQAPGQGLEWMGWMNPNSGNTGYAQKFQGRVTMTRDTSTSTVYMELSSLRSEDTAVYYCARDQGLTGYFDLWGRGTLVTVSS VL: DIQMTQSPSSLSASVGDRVTITCRASQSIGNWLAWYQQKPGKAPKLLIYKASSLESGVPSRFSGSGSGTDFTLTISSLQPEDFATYYCQQSYNTPPTFGPGTKVDIKR
> 30 fold	> 30 fold	binds	Polypeptide No. 104 (scFv, V domains shown, scFv) VH: EVQLLESGGGLVQPGGSLRLSCAASGFTFSSSWMHWVRQAPGKGLEWVAVISYDGSEEYYADSVKGRFTISRDNSKNTLYLQMNSLRAEDTAVYYCARLTDYGDYVLGRYLSDWGQGTLVTVSS VL: DIQMTQSPSSLSASVGDRVTITCRASQGISSYLAWYQQKPGKAPKLLIYAASSLQSGVPSRFSGSGSGTDFTLTISSLQPEDFATYYCQQSYSIPPTFGQGTKLEIKR
> 30 fold	10 to 30 fold	binds	Polypeptide No. 113 (scFv, V domains shown, scFv) VH: QVQLVQSGAEVKKPGSSVKVSCKASGGTFSSYDINWVRQAPGQGLEWMGGLIPVFGTTHYAQNFQGRVTITADESTSTAYMELSSLRSEDTAVYYCATGLGVTTSNYYYGMDVWGQGTLVTVSS VL: DIQMTQSPSSLSASVGDRVTITCRASQGIRNDIGWYQQKPGKAPKLLIYAASTLQSGVPSRFSGSGSGTDFTLTISSLQPEDFATYYCQQTYMMPYTFGQGTKLEIKR
2 to 10 fold	2 to 10 fold	binds	Polypeptide No. 106 (scFv, V domains shown, scFv) VH: QVQLVQSGAEVKKPGASVKVSCKASGYTFTGYYMHWVRQAPGQGLEWMGRIKPNSGGTDYAQKFQGRVTMTRDTSTSTVYMELSSLRSEDTAVYYCARGAYSGSYYGPIEYFQHWGQGTLVTVSS VL: DIQMTQSPSSLSASVGDRVTITCRASQSISWFLNWYQQKPGKAPKLLIYAASSLQNGVPSRFSGSGSGTDFTLTISSLQPEDFATYYCQQYGSFPPTFGGGTKVEIKR
2 to 10 fold	2 to 10 fold	binds	Polypeptide No. 117 (scFv, V domains shown, scFv) VH: EVQLLESGGGLVQPGGSLRLSCAASGFTFGDYPMSWVRQAPGKGLEWVAGISYDGLNEHYADSVKGRFTISRDNSKNTLYLQMNSLRAEDTAVYYCARDRDSGPSGFQHWGQGTLVTVSS VL: DIQMTQSPSSLSASVGDRVTITCRASQTIGTWLAWYQQKPGKAPKLLIYDASSLESGVPSRFSGSGSGTDFTLTISSLQPEDFATYYCQQSYSTPPTFGQGTKVEIKR
> 30 fold	> 30 fold	binds	Polypeptide No. 110 (scFv, V domains shown, scFv) VH: QVQLVQSGAEVKKPGASVKVSCKASGYTFTDYYVHWVRQAPGQGLEWMGWMNPNSGNTGYAQKFQGRVTMTRDTSTSTVYMELSSLRSEDTAVYYCARDFIWVEGYLASPPPRFDYWGQGTLVTVSS VL: DIQMTQSPSSLSASVGDRVTITCRASQRIGNWLAWYQQKPGKAPKLLIYAASSLQSGVPSRFSGSGSGTDFTLTISSLQPEDFATYYCQQSYSTPLTFGQGTKLEIKR
2 to 10 fold	2 to 10 fold	binds	Polypeptide No. 112 (scFv, V domains shown, scFv) VH: QVQLVQSGAEVKKPGSSVKVSCKASGSTLTGYDIHWVRQAPGQGLEWMGGIIPFLGTASYAQEFQGRVTITADESTSTAYMELSSLRSEDTAVYYCARGGGSGYDLDYWGQGTLVTVSS VL: DIQMTQSPSSLSASVGDRVTITCRSSESISSWLAWYQQKPGKAPKLLIYSASTLQSGVPSRFSGSGSGTDFTLTISSLQPEDFATYYCQQSYSTPVTFGQGTRLEIKR
10 to 30 fold	10 to 30 fold	binds	Polypeptide No. 107 (scFv, V domains shown, scFv) VH: QVQLVQSGAEVKKPGSSVKVSCKASGYTFTDYYIHWVRQAPGQGLEWMGGIIPIFGTANYAQKFQGRVTITADESTSTAYMELSSLRSEDTAVYYCAREPLWFGESSPHDYYGMDVWGQGTLVTVSS VL: DIQMTQSPSSLSASVGDRVTITCQASQDISNYLNWYQQKPGKAPKLLIYAASTLQSGVPSRFSGSGSGTDFTLTISSLQPEDFATYYCQQSYSSPPTFGQGTKVEIKR
10 to 30 fold	10 to 30 fold	binds	Polypeptide No. 105 (scFv, V domains shown, scFv) VH: EVQLLESGGGLVQPGGSLRLSCAASGFTFNNAWMTWVRQAPGKGLEWVAVISYDGSNKYYADSVKGRFTISRDNSKNTLYLQMNSLRAEDTAVYYCARMAVAGKGAFDIWGQGTMVTVSS VL: DIQMTQSPSSLSASVGDRVTITCRASQSIYSWLAWYQQKPGKAPKLLIYAASTLQSGVPSRFSGSGSGTDFTLTISSLQPEDFATYYCQQTYSTPVTFGQGTKVEIKR
> 30 fold	> 30 fold	binds	Polypeptide No. 116 (scFv, V domains shown, scFv) VH: EVQLLESGGGLVQPGGSLRLSCAASGFTFSNYAMAWVRQAPGKGLEWVSAISGSGGGTYYADSVKGRFTISRDNSKNTLYLQMNSLRAEDTAVYYCAREGGYDPDYYYYGMDVWGQGTTVTVSS VL: DIQMTQSPSSLSASVGDRVTITCRASQSISSYLNWYQQKPGKAPKLLIYATSRLQSGVPSRFSGSGSGTDFTLTISSLQPEDFATYYCQQGFNFPPTFGGGTKVEIKR
10 to 30 fold	10 to 30 fold	binds	Polypeptide No. 109 (scFv, V domains shown, scFv) VH: QVQLVQSGAEVKKPGSSVKVSCKASGYTFTTYGISWVRQAPGQGLEWMGWMNPNSGNTGYAQKFQGRVTITADESTSTAYMELSSLRSEDTAVYYCAREGGDGDYPDYWGQGTLVTVSS VL: EIVMTQSPATLSVSPGERATLSCRASQSISSSSLAWYQQKPGQAPRLLIYGASTRATGIPARFSGSGSGTEFTLTISSLQSEDFAVYYCQQYETAPYTFGQGTKLEIKR
> 30 fold	10 to 30 fold	binds	Polypeptide No. 111 (scFv, V domains shown, scFv) VH: QVQLVQSGAEVKKPGASVKVSCKASGGTFTSYGISWVRQAPGQGLEWMGWINPNTGVTNYAQDFQGRVTMTRDTSTSTVYMELSSLRSEDTAVYYCANEQGGFDYWGQGTLVTVSS VL: EIVMTQSPATLSVSPGERATLSCRASQSVAGSYLAWYQQKPGQAPRLLIYGASTRATGIPARFSGSGSGTEFTLTISSLQSEDFAVYYCQQYYSTPLTFGGGTKVEIKR
10 to 30 fold	2 to 10 fold	binds	Polypeptide No. 118 (scFv, V domains shown, scFv) VH: EVQLVESGGGLVKPGGSLRLSCAASGFTISNAWMSWVRQAPGKGLEWVAHIWNDGSQKYYADSVKGRFTISRDDSKNTLYLQMNSLKTEDTAVYYCARDGALGVGPDDYWGQGTLVTVSS VL: DIVMTQSPLSLPVTPGEPASISCRSSQSLLHSNGYNYLDWYLQKPGQSPQLLIYAASSLQSGVPDRFSGSGSGTDFTLKISRVEAEDVGVYYCMQGLQTPHTFGGGTKVEIKR
10 to 30 fold	10 to 30 fold	binds	Polypeptide No. 102 (scFv, V domains shown, scFv) VH: EVQLLESGGGLVQPGGSLRLSCAASGFTFSNAWMSWVRQAPGKGLEWVSGIGGSGGTIYYADSVKGRFTISRDNSKNTLYLQMNSLRAEDTAVYYCAREVAAPLHPFGYYYYMDVWGKGTTVTVSS VL: not shown
